Data as given in US20090175866A1, “TREATMENT OF B-CELL MALIGNANCIES” (priority 2004, published 2009).

Assays:
H929 cells = assay: Viability of H929 myeloma cells (MTT); format: cell-based, human; conditions: 5 μg/ml
From the text: FIG. 2 is a graph showing the viability of human myeloma cell lines in the presence of PRO-001. Viability is reported as the ratio between the optical density (OD) in the presence of FGF±inhibitor and the OD in the absence of FGF.
Non-transformed rat chondrocyte cell line expressing PGFR3 in an inducible manner (RCJ-FGFR3) has been described previously (Rauchenberger R. et al. J. Biol. Chem. 2003; 278:38194-205). Cells were maintained in α-Minimum Essential Media supplemented with 15% fetal calf serum (FCS), 2 mM L-Glutamine, 100 U/ml penicillin, 100 μg/ml streptomycin, 600 μg/ml G418 (Gibco BRL, Ontario, Canada), 2 μg/ml Tetracyclin (Sigma, Ontario, Canada), and 50 μg/ml HygromycinB (Gibco BRL). […]
Cell viability was assessed by 3-(4,5-dimethylthiazol)-2,5-diphenyl tetrazolium (MTT) or (2,3-bis(2-methoxy-4-nitro-5-sulphophenyl)-5-[(phenylamino) carbonyl]-2H-tetrazolium hydroxide (XTT) dye absorbance where indicated. Cells were seeded in 96-well plates at a density of 20,000 (FDCP-1 cells), 5,000 (B9 cells) or 25,000 cells (MM cell lines) per well in culture medium. Cells were incubated in the absence or presence of one of the following cytokines: 10 ng/ml FGF9 and 5 μg/ml heparin, 1% murine IL-6, 50 ng/ml IGF-1 or 50 ng/ml human IL-6 where indicated and increasing concentrations of PRO-001, control antibody (purified human Fab) or 100 nM PD173074. […]

FDCP-FGFR3^S249C cells = assay: FDCP-FGFR3^S249C xenograft tumor model in nude mice; format: in vivo; conditions: PRO-001 Fab I.P.
Procedure: FIG. 8B is a graph showing the effect of PRO-001 on an FGFR3-driven xenograft tumor model. Nude mice (3 in each group), were injected S.C. at 2 locations, one on each flank (a—right flank, b—left flank), with 2×10^6 FDCP-FGFR3^S249C cells each. A week later, mice were randomized to receive PRO-001 by I.P. injection according to the schedule described in Table I or PBS as control. Tumor volume was estimated from measurements in 3 dimensions at 22 or 29 days post cell injection.
FDCP-FGFP3^S249C cells were washed 3 times in PBS then resuspended at 2×10^6 cells/200 μl PBS. The cells were injected subcutaneously (S.C.) to CD1 nude adult females (Harlan, Laboratories, Israel) with a 25 G needle at one or both mouse flanks. Treatment was initiated one week post cell inoculation at which time mice were randomized to receive PRO-001 or an equal volume of PBS alone. Dosing was preformed twice weekly by intraperitoneal (I.P.) injection for 3 weeks. Mice were followed every 2-4 days and developing tumors were measured at 3 dimensions using a caliper. Tumor volume was estimated by multiplying these 3 values.
Nude mice were injected subcutaneously at 2 locations; one on each flank, with 2×10^6 FDCP-FGFR3^S249C cells each. One week post cell injection, mice were treated with PRO-001 Fab. […]

B1: PRO-001: human anti-FGFR3 Fab from HuCAL library; VH-CDR3 SEQ ID NO:1, VL-CDR3 SEQ ID NO:10; VH SEQ ID NO:19, VL SEQ ID NO:28 (antibody, V domains shown)
VH: QVQLQQSGPGLVKPSQTLSLTCAISGDSVSSNSAAWNWIRQSPGRGLEWLGRTYYRSKWYNDYAVSVKSRITINPDTSKNQFSLQLNSVTPEDTAVYYCARSYYPDFDYWGQGTLVTVSS
VL: DIELTQPPSVSVAPGQTARISCSGDALGDKYASWYQQKPGQAPVLVIYDDSDRPSGIPERFSGSNSGNTATLTISGTQAEDEADYYCQSYDGPDLWVFGGGTKLTVLGQ
In the case of B1, the “Cell growth of H929 cells in the presence of FGF” value (H929 cells) is reported as “resistant”, the “Tumor growth relative to control mice” value (FDCP-FGFR3^S249C cells; four weeks post cell injection, 400-275 μg per dose) is reported as 10% and the “Toxicities and weight loss over the treatment period” value (FDCP-FGFR3^S249C cells; nude mice) is reported as “No major toxicities or significant weight loss”.
